The text below walks through data of patent US20130071390A1 (Merck Sharp & Dohme, published 2013).

Assay [1] deals with T1, FcγRI (Fc receptor gamma-chain I, CD64) (UniProt P12314 16-288).
T1 construct: also called FcγR1
The experiment in a line: FcγR ELISA. In general terms: In an ELISA, binding on a coated surface is turned into a signal by an enzyme label.
Description: (§1) High protein binding 96-well plates (Corning Costar, Lowell, Mass.) were coated with 100 μl per well of Fcγ receptor solutions in PBS at the following concentrations: 1 μg/mL for FcγRI (R & D Systems) and FcγRIIa (Pichia pastoris produced), 2 μg/mL for FcγRIIb/c (P. pastoris produced), 0.4 μg/mL for FcγRIIIa-V158, and 0.8 μg/mL for FcγRIIIa-F158 (both P. pastoris produced).
(§2) For FcγRI, the antibody was coated in assay diluent (1% BSA, PBS, 0.05% Tween20) in monomeric form. For all other receptors, the antibody was coated after dimerization with alkaline phosphatase conjugated anti-human IgG F(ab′)₂ (Jackson ImmunoResearch, West Grove, Pa.) for one hour at room temperature. FcγRI bound antibody was also detected using the F(ab′)₂ and all plates were quantified by measuring excitation at 340 nm and emission at 465 nm after an 18 hour incubation with SuperPhosk (Virolabs, Chantilly, Va.).

In assay [2] the target is T2, histidine-tagged extracellular domain of human Fc gamma receptor IIb/c (Pichia pastoris produced) (human, UniProt P31994 46-217).
T2 construct: also called FcγRIIb/c; FcγRIIb
T2 sequence: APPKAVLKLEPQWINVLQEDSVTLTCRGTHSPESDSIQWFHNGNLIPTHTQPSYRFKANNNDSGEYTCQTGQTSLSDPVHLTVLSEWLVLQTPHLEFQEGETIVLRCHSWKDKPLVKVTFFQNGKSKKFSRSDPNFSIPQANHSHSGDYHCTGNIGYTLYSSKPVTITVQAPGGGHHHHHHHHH
The experiment in a line: FcγR ELISA, receptor coated on plate.
Description: as §1, §2

T1 sequence (P12314 16-288 limits assumed): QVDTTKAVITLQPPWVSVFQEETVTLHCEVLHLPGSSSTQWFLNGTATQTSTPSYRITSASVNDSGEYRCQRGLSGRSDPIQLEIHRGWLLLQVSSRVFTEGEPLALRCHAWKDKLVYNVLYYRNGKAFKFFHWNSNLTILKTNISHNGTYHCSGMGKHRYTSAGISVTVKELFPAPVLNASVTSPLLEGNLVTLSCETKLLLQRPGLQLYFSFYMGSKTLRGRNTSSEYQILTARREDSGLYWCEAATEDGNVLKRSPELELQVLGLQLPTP

B1: anti-PCSK9 double mutein antibody F243A/V264A produced in GFI6.0 (antibody, human IgG1, kappa)
heavy: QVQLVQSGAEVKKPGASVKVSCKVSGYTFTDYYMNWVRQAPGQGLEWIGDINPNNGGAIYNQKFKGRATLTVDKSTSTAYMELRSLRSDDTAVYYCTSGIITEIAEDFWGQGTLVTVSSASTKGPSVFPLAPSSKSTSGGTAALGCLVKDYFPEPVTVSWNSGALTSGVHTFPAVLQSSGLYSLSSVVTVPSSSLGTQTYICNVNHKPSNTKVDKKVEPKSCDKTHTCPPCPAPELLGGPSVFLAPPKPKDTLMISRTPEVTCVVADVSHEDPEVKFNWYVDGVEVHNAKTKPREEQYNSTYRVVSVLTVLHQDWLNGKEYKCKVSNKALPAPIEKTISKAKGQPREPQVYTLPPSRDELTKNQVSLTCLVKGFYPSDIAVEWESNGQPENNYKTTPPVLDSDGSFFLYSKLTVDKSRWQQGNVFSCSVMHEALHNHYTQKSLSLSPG
light: DIQMTQSPSSLSASVGDRVTITCKASQNVGTNVVWYQQKPGKAPKALIHSASYRYSGVPSRFSGSGSGTDFTLTISSLQPEDFATYYCQQYKTYPYTFGQGTKVEIKRTVAAPSVFIFPPSDEQLKSGTASVVCLLNNFYPREAKVQWKVDNALQSGNSQESVTEQDSKDSTYSLSSTLTLSKADYEKHKVYACEVTHQGLSSPVTKSFNRGEC
For the molecule B1, the “fold reduction in binding vs parent antibody (produced in GFI5.0)” value in assay [1] was roughly 4 fold. Moreover, the binding result in assay [2] was “no binding”.
